From article PMC4070737

Target: T1, full-length human EB1 (human), Q15691
T1 chain: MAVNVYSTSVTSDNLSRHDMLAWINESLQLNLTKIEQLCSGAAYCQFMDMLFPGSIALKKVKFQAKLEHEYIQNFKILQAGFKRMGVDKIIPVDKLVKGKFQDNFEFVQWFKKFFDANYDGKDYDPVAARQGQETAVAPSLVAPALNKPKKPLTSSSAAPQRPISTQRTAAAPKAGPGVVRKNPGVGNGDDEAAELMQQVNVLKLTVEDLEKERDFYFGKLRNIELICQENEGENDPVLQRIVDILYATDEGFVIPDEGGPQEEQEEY
Assay: AUC
Details: remark: other sources report otherwise

Kd: 88.5 nM | stoichiometry N: 2
B1: full-length human EB1, Q15691 1-268 (natural protein)
chain: MAVNVYSTSVTSDNLSRHDMLAWINESLQLNLTKIEQLCSGAAYCQFMDMLFPGSIALKKVKFQAKLEHEYIQNFKILQAGFKRMGVDKIIPVDKLVKGKFQDNFEFVQWFKKFFDANYDGKDYDPVAARQGQETAVAPSLVAPALNKPKKPLTSSSAAPQRPISTQRTAAAPKAGPGVVRKNPGVGNGDDEAAELMQQVNVLKLTVEDLEKERDFYFGKLRNIELICQENEGENDPVLQRIVDILYATDEGFVIPDEGGPQEEQEEY
